Numbered stars: 1 amine (or outer) side, 2 acyl side, 3 side chain; on linkers, the order of the positions; unused ones are H or OH. Bridge positions count the residues as written; N and C are the ends. Side chains are listed from the residue outwards. Ends that are not written are not given here. * marks the point of attachment. C20 diacid = O=C(O)CCCCCCCCCCCCCCCCCCC(=O)*; γGlu = O=C(O)[C@H](CCC(=O)[*:2])N[*:1]; AEEA = NCCOCCOCC(=O)O
T1: human amylin receptor (amylin 3(a) receptor: human calcitonin receptor plus RAMP-3) (human, UniProt P30988 25-474; O60896 24-148)
T1 construct: whole, on cells; functional assay (II)a used the whole cells; also called hAmylin-R; hAmylinR
T1 sequence (looked up) 1: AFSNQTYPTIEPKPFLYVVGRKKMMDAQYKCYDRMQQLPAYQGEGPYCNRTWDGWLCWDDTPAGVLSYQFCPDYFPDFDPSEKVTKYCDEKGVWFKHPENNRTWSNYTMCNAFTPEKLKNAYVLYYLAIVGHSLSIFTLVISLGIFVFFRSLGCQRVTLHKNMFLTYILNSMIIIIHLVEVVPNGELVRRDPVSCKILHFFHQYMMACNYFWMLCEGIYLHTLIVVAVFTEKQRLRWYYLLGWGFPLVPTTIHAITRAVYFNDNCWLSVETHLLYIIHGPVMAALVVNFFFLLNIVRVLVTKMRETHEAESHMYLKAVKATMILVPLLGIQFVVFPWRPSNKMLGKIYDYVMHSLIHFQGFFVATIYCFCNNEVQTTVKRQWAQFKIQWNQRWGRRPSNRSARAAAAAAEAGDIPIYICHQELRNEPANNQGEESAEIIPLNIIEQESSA
T1 sequence (looked up) 2: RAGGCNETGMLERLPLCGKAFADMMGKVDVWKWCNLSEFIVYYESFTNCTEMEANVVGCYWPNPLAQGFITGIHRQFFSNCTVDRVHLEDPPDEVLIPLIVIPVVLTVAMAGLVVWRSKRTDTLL

T2: human calcitonin receptor (human, UniProt P30988 25-474)
T2 sequence (looked up): T1 sequence (looked up) 1

B1: N^ε1-[2-[2-[2-[[2-[2-[2-[[(4S)-4-carboxy-4-(19-carboxynonadecanoylamino)butanoyl]amino]ethoxy]ethoxy]acetyl]amino]ethoxy]ethoxy]acetyl]-[Arg17,Pro21,Pro27,Glu35 … (peptide)
peptide: K([AEEA-AEEA-γGlu-C20 diacid])CNTATCATQRLANFLRHSSPNFGAIPSSTNVGSETY-NH2
modifications: disulfide 2-7; N-terminus assumed
SMILES: CC[C@H](C)[C@H](NC(=O)[C@H](C)NC(=O)CNC(=O)[C@H](Cc1ccccc1)NC(=O)[C@H](CC(N)=O)NC(=O)[C@@H]1CCCN1C(=O)[C@H](CO)NC(=O)[C@H](CO)NC(=O)[C@H](Cc1c[nH]cn1)NC(=O)[C@H](CCCNC(=N)N)NC(=O)[C@H](CC(C)C)NC(=O)[C@H](Cc1ccccc1)NC(=O)[C@H](CC(N)=O)NC(=O)[C@H](C)NC(=O)[C@H](CC(C)C)NC(=O)[C@H](CCCNC(=N)N)NC(=O)[C@H](CCC(N)=O)NC(=O)[C@@H](NC(=O)[C@H](C)NC(=O)[C@@H]1CSSC[C@H](NC(=O)[C@@H](N)CCCCNC(=O)COCCOCCNC(=O)COCCOCCNC(=O)CC[C@H](NC(=O)CCCCCCCCCCCCCCCCCCC(=O)O)C(=O)O)C(=O)N[C@@H](CC(N)=O)C(=O)N[C@@H]([C@@H](C)O)C(=O)N[C@@H](C)C(=O)N[C@@H]([C@@H](C)O)C(=O)N1)[C@@H](C)O)C(=O)N1CCC[C@H]1C(=O)N[C@@H](CO)C(=O)N[C@@H](CO)C(=O)N[C@H](C(=O)N[C@@H](CC(N)=O)C(=O)N[C@H](C(=O)NCC(=O)N[C@@H](CO)C(=O)N[C@@H](CCC(=O)O)C(=O)N[C@H](C(=O)N[C@@H](Cc1ccc(O)cc1)C(N)=O)[C@@H](C)O)C(C)C)[C@@H](C)O
notes: also called compound 25
B2: N^ε1-[2-[2-[2-[[(4S)-4-carboxy-4-(19-carboxynonadecanoylamino)butanoyl]amino]ethoxy]ethoxy]acetyl]-[Arg17,Pro21,Pro27,Glu35]-h-amylin (peptide)
peptide: K([AEEA-γGlu-C20 diacid])CNTATCATQRLANFLRHSSPNFGAIPSSTNVGSETY-NH2
modifications: disulfide 2-7; N-terminus assumed
SMILES: CC[C@H](C)[C@H](NC(=O)[C@H](C)NC(=O)CNC(=O)[C@H](Cc1ccccc1)NC(=O)[C@H](CC(N)=O)NC(=O)[C@@H]1CCCN1C(=O)[C@H](CO)NC(=O)[C@H](CO)NC(=O)[C@H](Cc1c[nH]cn1)NC(=O)[C@H](CCCNC(=N)N)NC(=O)[C@H](CC(C)C)NC(=O)[C@H](Cc1ccccc1)NC(=O)[C@H](CC(N)=O)NC(=O)[C@H](C)NC(=O)[C@H](CC(C)C)NC(=O)[C@H](CCCNC(=N)N)NC(=O)[C@H](CCC(N)=O)NC(=O)[C@@H](NC(=O)[C@H](C)NC(=O)[C@@H]1CSSC[C@H](NC(=O)[C@@H](N)CCCCNC(=O)COCCOCCNC(=O)CC[C@H](NC(=O)CCCCCCCCCCCCCCCCCCC(=O)O)C(=O)O)C(=O)N[C@@H](CC(N)=O)C(=O)N[C@@H]([C@@H](C)O)C(=O)N[C@@H](C)C(=O)N[C@@H]([C@@H](C)O)C(=O)N1)[C@@H](C)O)C(=O)N1CCC[C@H]1C(=O)N[C@@H](CO)C(=O)N[C@@H](CO)C(=O)N[C@H](C(=O)N[C@@H](CC(N)=O)C(=O)N[C@H](C(=O)NCC(=O)N[C@@H](CO)C(=O)N[C@@H](CCC(=O)O)C(=O)N[C@H](C(=O)N[C@@H](Cc1ccc(O)cc1)C(N)=O)[C@@H](C)O)C(C)C)[C@@H](C)O
notes: also called compound 26
B3: N^ε1-[2-[2-[2-[[(4S)-4-carboxy-4-(19-carboxynonadecanoylamino)butanoyl]amino]ethoxy]ethoxy]acetyl]-[Arg17,Pro21,Pro27,Pro31,His35]-h-amylin (peptide)
peptide: K([AEEA-γGlu-C20 diacid])CNTATCATQRLANFLRHSSPNFGAIPSSTPVGSHTY-NH2
modifications: disulfide 2-7; N-terminus assumed
SMILES: CC[C@H](C)[C@H](NC(=O)[C@H](C)NC(=O)CNC(=O)[C@H](Cc1ccccc1)NC(=O)[C@H](CC(N)=O)NC(=O)[C@@H]1CCCN1C(=O)[C@H](CO)NC(=O)[C@H](CO)NC(=O)[C@H](Cc1c[nH]cn1)NC(=O)[C@H](CCCNC(=N)N)NC(=O)[C@H](CC(C)C)NC(=O)[C@H](Cc1ccccc1)NC(=O)[C@H](CC(N)=O)NC(=O)[C@H](C)NC(=O)[C@H](CC(C)C)NC(=O)[C@H](CCCNC(=N)N)NC(=O)[C@H](CCC(N)=O)NC(=O)[C@@H](NC(=O)[C@H](C)NC(=O)[C@@H]1CSSC[C@H](NC(=O)[C@@H](N)CCCCNC(=O)COCCOCCNC(=O)CC[C@H](NC(=O)CCCCCCCCCCCCCCCCCCC(=O)O)C(=O)O)C(=O)N[C@@H](CC(N)=O)C(=O)N[C@@H]([C@@H](C)O)C(=O)N[C@@H](C)C(=O)N[C@@H]([C@@H](C)O)C(=O)N1)[C@@H](C)O)C(=O)N1CCC[C@H]1C(=O)N[C@@H](CO)C(=O)N[C@@H](CO)C(=O)N[C@H](C(=O)N1CCC[C@H]1C(=O)N[C@H](C(=O)NCC(=O)N[C@@H](CO)C(=O)N[C@@H](Cc1c[nH]cn1)C(=O)N[C@H](C(=O)N[C@@H](Cc1ccc(O)cc1)C(N)=O)[C@@H](C)O)C(C)C)[C@@H](C)O
notes: also called compound 57
B4: N^ε1-[(4S)-4-carboxy-4-(19-carboxynonadecanoylamino)butanoyl]-[Arg17,Pro21,Pro27,Glu35]-h-amylin (peptide)
peptide: K([γGlu-C20 diacid])CNTATCATQRLANFLRHSSPNFGAIPSSTNVGSETY-NH2
modifications: disulfide 2-7; N-terminus assumed
SMILES: CC[C@H](C)[C@H](NC(=O)[C@H](C)NC(=O)CNC(=O)[C@H](Cc1ccccc1)NC(=O)[C@H](CC(N)=O)NC(=O)[C@@H]1CCCN1C(=O)[C@H](CO)NC(=O)[C@H](CO)NC(=O)[C@H](Cc1c[nH]cn1)NC(=O)[C@H](CCCNC(=N)N)NC(=O)[C@H](CC(C)C)NC(=O)[C@H](Cc1ccccc1)NC(=O)[C@H](CC(N)=O)NC(=O)[C@H](C)NC(=O)[C@H](CC(C)C)NC(=O)[C@H](CCCNC(=N)N)NC(=O)[C@H](CCC(N)=O)NC(=O)[C@@H](NC(=O)[C@H](C)NC(=O)[C@@H]1CSSC[C@H](NC(=O)[C@@H](N)CCCCNC(=O)CC[C@H](NC(=O)CCCCCCCCCCCCCCCCCCC(=O)O)C(=O)O)C(=O)N[C@@H](CC(N)=O)C(=O)N[C@@H]([C@@H](C)O)C(=O)N[C@@H](C)C(=O)N[C@@H]([C@@H](C)O)C(=O)N1)[C@@H](C)O)C(=O)N1CCC[C@H]1C(=O)N[C@@H](CO)C(=O)N[C@@H](CO)C(=O)N[C@H](C(=O)N[C@@H](CC(N)=O)C(=O)N[C@H](C(=O)NCC(=O)N[C@@H](CO)C(=O)N[C@@H](CCC(=O)O)C(=O)N[C@H](C(=O)N[C@@H](Cc1ccc(O)cc1)C(N)=O)[C@@H](C)O)C(C)C)[C@@H](C)O
notes: also called compound 27
B5: N^ε1-[2-[2-[2-[[(4S)-4-carboxy-4-(19-carboxynonadecanoylamino)butanoyl]amino]ethoxy]ethoxy]acetyl]-[Arg17,Pro21,Pro27,Pro34,His35]-h-amylin (peptide)
peptide: K([AEEA-γGlu-C20 diacid])CNTATCATQRLANFLRHSSPNFGAIPSSTNVGPHTY-NH2
modifications: disulfide 2-7; N-terminus assumed
SMILES: CC[C@H](C)[C@H](NC(=O)[C@H](C)NC(=O)CNC(=O)[C@H](Cc1ccccc1)NC(=O)[C@H](CC(N)=O)NC(=O)[C@@H]1CCCN1C(=O)[C@H](CO)NC(=O)[C@H](CO)NC(=O)[C@H](Cc1c[nH]cn1)NC(=O)[C@H](CCCNC(=N)N)NC(=O)[C@H](CC(C)C)NC(=O)[C@H](Cc1ccccc1)NC(=O)[C@H](CC(N)=O)NC(=O)[C@H](C)NC(=O)[C@H](CC(C)C)NC(=O)[C@H](CCCNC(=N)N)NC(=O)[C@H](CCC(N)=O)NC(=O)[C@@H](NC(=O)[C@H](C)NC(=O)[C@@H]1CSSC[C@H](NC(=O)[C@@H](N)CCCCNC(=O)COCCOCCNC(=O)CC[C@H](NC(=O)CCCCCCCCCCCCCCCCCCC(=O)O)C(=O)O)C(=O)N[C@@H](CC(N)=O)C(=O)N[C@@H]([C@@H](C)O)C(=O)N[C@@H](C)C(=O)N[C@@H]([C@@H](C)O)C(=O)N1)[C@@H](C)O)C(=O)N1CCC[C@H]1C(=O)N[C@@H](CO)C(=O)N[C@@H](CO)C(=O)N[C@H](C(=O)N[C@@H](CC(N)=O)C(=O)N[C@H](C(=O)NCC(=O)N1CCC[C@H]1C(=O)N[C@@H](Cc1c[nH]cn1)C(=O)N[C@H](C(=O)N[C@@H](Cc1ccc(O)cc1)C(N)=O)[C@@H](C)O)C(C)C)[C@@H](C)O
notes: also called compound 58

target: T1, human amylin receptor (amylin 3(a) …); assay: SPA competition binding, displacement of 125I-rat amylin, membranes of BHK amylin 3(a)/CRE-luc cells
Method: The binding assay was performed using scintillation proximity assay (SPA) beads (RPNQ0001) from PerkinElmer and cell membranes from the Amylin 3(a)/CRE-luc cells (as described in Assay (II)) were used. Membranes were prepared in the following way; the cells were rinsed with PBS and incubated with Versene for approximately 5 min before harvesting. The cells were flushed with PBS and the cell-suspension was centrifuged for 5 min at 1000 rpm. Cells were homogenized (ultrathurrax) in a buffer containing 20 mM Na-HEPES and 10 mM EDTA (pH 7.4) and centrifuged at 20.000 rpm for 15 min. The resulting pellet was resuspended, homogenized and centrifuged (20.000 rpm, 15 min) in a buffer containing 20 mM Na-HEPES and 0.1 mM EDTA (pH 7.4, buffer 2). The resulting pellet was resuspended in buffer 2 and protein concentration was measured (BCA protein Assay, Pierce). The homogenate was kept cold during the whole procedure. The membranes were kept at −80° C. until use. The assay was performed in a 384 well Optiplate (PerkinElmer) in a total volume of 40 ul. Membranes were mixed with SPA beads. Final concentration of membranes 35 ng/μL final and SPA beads was 0.05 mg/well. Test-compounds were dissolved in DMSO and further diluted in assay buffer (50 mM Hepes, pH 7.4, 1 mM CaCl2, 5 mM MgCl₂, 0.1% OA and 0.02% Tween20). […] The final mixture was incubated with shaking at 400 rpm for 120 min at 25° C. prior to centrifugation (1500 rpm, 10 min). Samples were analyzed on TopCounter™ (Packard). The IC₅₀ was calculated using (one site binding competition analysis) GraphPad Prism5 as a measure of receptor affinity.

Row | IC50 [nM] | Binder
1 | 0.768 | B1
2 | 0.532 | B2
3 | 0.115 | B3
4 | 0.837 | B4
5 | 0.088 | B5

target: T1, human amylin receptor (amylin 3(a) …); assay: cell-based or functional assay

Row | Ratio hCT/hAmylin funct. | hAmylin-R funct. EC50 (pM) | Binder
6 | 46.2 | 217 | B1
7 | 29.9 | 212 | B2
8 | 35 | 89 | B3
9 | 22.6 | 133 | B4
10 | 21.9 | 47 | B5

target: T2, human calcitonin receptor; assay: cell-based or functional assay

Row | hCTR funct. EC50 (pM) | Binder
11 | 10000 | B1
12 | 6340 | B2
13 | 3120 | B3
14 | 3000 | B4
15 | 1030 | B5

From patent US20140087995A1 (published 2014)
